What was measured:
Experiment in all cases: purified protein
Settings in all cases: pH and temperature of the kinetic assay not given
purified protein [1] = substrate: CCOC(=O)[C@@H](C)Oc1ccc(Oc2nc3ccc(Cl)cc3o2)cc1
purified protein [2] = substrate: COC(=O)[C@@H](C)Oc1ccc(Oc2ncc(C(F)(F)F)cc2Cl)cc1
purified protein [3] = substrate: C#CCOC(=O)[C@@H](C)Oc1ccc(Oc2ncc(Cl)cc2F)cc1
purified protein [4] = substrate: CCOC(=O)[C@@H](C)Oc1ccc(Oc2cnc3cc(Cl)ccc3n2)cc1
purified protein [5] = substrate: CCCCOC(=O)[C@@H](C)Oc1ccc(Oc2ccc(C(F)(F)F)cn2)cc1
purified protein [6] = substrate: COC(=O)C(C)Oc1ccc(Oc2ccc(Cl)cc2Cl)cc1

B1: FeH (FE-hydrolyzing carboxylesterase) (Rhodococcus sp. JPL-2) (protein)
chain: MSDIHGVCDARFSALREALERNLDSGEDVGASIAVTLDGEPVVDIWGGSMDAGGSRPWERDTITNVWSCSKTVTALAALMLVDRGQLDLDAPVARYWSDFAANGKEGILVRHLLSHTSGVSGWDQPFTMDDLADTTKATELLAAQAPWWEPGTASGYHALNYGHLIGEVVRRVDGRTLTGFIEEEISRPLGADFRLGVARSDYSRVSEVIPPPPLPIDFATLDPASVMVKTFTGPPADATAAWGDGWREAEIGAANGHSNARALARIQSVIACGGRVGGVRLLSADTIDAIFDEQSYGVDLVLGVPVRFGVGFGLPTPESVPFVPEGRICFWGGWGGSQIIVDTERRMTVAYVMNKMGPGLLGSDRSAEYVSAAFAAVP
- Km (purified protein [1]): 200 µM
- kcat (purified protein [1]): 0.7 s⁻¹
- kcat/Km (purified protein [1]): 3520 M⁻¹ s⁻¹
- Km (purified protein [2]): 390 µM
- kcat (purified protein [2]): 0.37 s⁻¹
- kcat/Km (purified protein [2]): 940 M⁻¹ s⁻¹
- Km (purified protein [3]): 290 µM
- kcat (purified protein [3]): 0.61 s⁻¹
- kcat/Km (purified protein [3]): 2090 M⁻¹ s⁻¹
- Km (purified protein [4]): 230 µM
- kcat (purified protein [4]): 0.75 s⁻¹
- kcat/Km (purified protein [4]): 3250 M⁻¹ s⁻¹
- Km (purified protein [5]): 360 µM
- kcat (purified protein [5]): 0.59 s⁻¹
- kcat/Km (purified protein [5]): 1650 M⁻¹ s⁻¹
- Km (purified protein [6]): 410 µM
- kcat (purified protein [6]): 0.33 s⁻¹
- kcat/Km (purified protein [6]): 810 M⁻¹ s⁻¹
